For 1 molecule, Kd results are on record in paper PMC10865538 (BMC Infectious Diseases, 2024).

The target in the test is T1, recombinant wild-type RBD-Fc (Sino Biological, 40,592-V02H) (SARS-CoV-2, UniProt P0DTC2).
T1 construct: also called Fc-tagged SARS-CoV-2 RBD; source: bought: Sino Biological
Put plainly: BLI. As to conditions: both partners purified.

B1: sdAb39 (VHH)
VHH: EVQLVESGGGLVQPGGSLRLSCAASGNTSTRHPMSWVRQAPGKGLELVASIGRGEITYYADSVKGRFTISRDNSKNTLYLQMNSLRAEDTAVYYCAAFVDFLSRHNSRRPYPHGYWGQGTLVTVSS
In general, Kd refers to the concentration at which binding is half-saturated. As for B1, the Kd is 56 nM.
